From patent US10464978B2, “Peptides and combination of peptides for use in immunotherapy against ovarian cancer and other cancers” (immatics biotechnologies GmbH, priority 2015, dated 2019)

Target: HLA-A*02:01 (Homo sapiens, UniProt P04439, D140Y/D185E/D98H/E176V/E277Q/G131W/G231S/I119V/I121R/I166T/I218V/L300P/L318F/N151K/N90K/P208A/P217A/Q86G/Q94H/R138H/R169H/T345S)
Test: MHC binding assay: UV-ligand exchange with beta2m ELISA (peptide exchange yield)
Details: binding to HLA-A*02:01
Summary of the method: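 Values give exchange yield, measured by β2m ELISA: 100-fold-diluted monomers bound to streptavidin plates (1h, 37° C), probed with HRP anti-β2m at 2 ug/ml and read at 450 nm after TMB. Monomers came from UV-triggered cleavage of a photolabile peptide and exchange for the test peptide.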

Substance | Peptide exchange (MHC class I binding score, peptide exchange yield)
439 (YLLQEIYGI; listed as Homo sapiens) [compound 439] | “+++” (≥50 = +++)
440 (ALADGVTMQV; listed as Homo sapiens) [compound 440] | “++” (≥20% = ++)
441 (ALLENPKMEL; listed as Homo sapiens) [compound 441] | “+++” (≥50 = +++)
442 (GLLGGGGVLGV; listed as Homo sapiens) [compound 442] | “+++” (≥50 = +++)
443 (GLWEIENNPTV; listed as Homo sapiens) [compound 443] | “+++” (≥50 = +++)
444 (GLLRDEALAEV; listed as Homo sapiens) [compound 444] | “+++” (≥50 = +++)
446 (QLIPALAKV; listed as Homo sapiens) [compound 446] | “+++” (≥50 = +++)
447 (QLVPALAKV; listed as Homo sapiens) [compound 447] | “++” (≥20% = ++)
448 (NLLETKLQL; listed as Homo sapiens) [compound 448] | “+++” (≥50 = +++)
449 (KLAEGLDIQL; listed as Homo sapiens) [compound 449] | “+++” (≥50 = +++)
450 (FMIDASVHPTL; listed as Homo sapiens) [compound 450] | “+++” (≥50 = +++)
451 (LLLLDTVTMQV; listed as Homo sapiens) [compound 451] | “++” (≥20% = ++)
452 (ILLEHGADPNL; listed as Homo sapiens) [compound 452] | “+++” (≥50 = +++)
453 (KLLEATSAV; listed as Homo sapiens) [compound 453] | “++” (≥20% = ++)
454 (KLPPPPPQA; listed as Homo sapiens) [compound 454] | “+++” (≥50 = +++)
455 (SLLKEPQKVQL; listed as Homo sapiens) [compound 455] | “++” (≥20% = ++)
456 (LLIGHLERV; listed as Homo sapiens) [compound 456] | “+++” (≥50 = +++)
457 (SLLPGNLVEKV; listed as Homo sapiens) [compound 457] | “+++” (≥50 = +++)
458 (SLIDKLYNI; listed as Homo sapiens) [compound 458] | “++” (≥20% = ++)
459 (ALITEVVRL; listed as Homo sapiens) [compound 459] | “++” (≥20% = ++)
460 (AMLEKNYKL; listed as Homo sapiens) [compound 460] | “++++” (≥75% = ++++)
461 (VMFRTPLASV; listed as Homo sapiens) [compound 461] | “++” (≥20% = ++)
462 (KLAKQPETV; listed as Homo sapiens) [compound 462] | “+++” (≥50 = +++)

Substance | Peptide exchange (MHC class I binding score, peptide exchange yield)
463 (SLVESHLSDQLTL; listed as Homo sapiens) [compound 463] | “+++” (≥50 = +++)
464 (ALNDCIYSV; listed as Homo sapiens) [compound 464] | “+++” (≥50 = +++)
465 (QLCDLNAEL; listed as Homo sapiens) [compound 465] | “+++” (≥50 = +++)
466 (VLIANLEKL; listed as Homo sapiens) [compound 466] | “++++” (≥75% = ++++)
467 (FLAKDFNFL; listed as Homo sapiens) [compound 467] | “+++” (≥50 = +++)
468 (YLRSVGDGETV; listed as Homo sapiens) [compound 468] | “+++” (≥50 = +++)
469 (YLASDEITTV; listed as Homo sapiens) [compound 469] | “+++” (≥50 = +++)
471 (YLYNNMIAKI; listed as Homo sapiens) [compound 471] | “+++” (≥50 = +++)
472 (KLLEVSDDPQV; listed as Homo sapiens) [compound 472] | “+++” (≥50 = +++)
473 (AMATESILHFA; listed as Homo sapiens) [compound 473] | “+++” (≥50 = +++)
474 (YLDPALELGPRNV; listed as Homo sapiens) [compound 474] | “+++” (≥50 = +++)
475 (LLLNEEALAQI; listed as Homo sapiens) [compound 475] | “+++” (≥50 = +++)
476 (ALMERTGYSMV; listed as Homo sapiens) [compound 476] | “+++” (≥50 = +++)
477 (ALLPASGQIAL; listed as Homo sapiens) [compound 477] | “+++” (≥50 = +++)
478 (YLLHEKLNL; listed as Homo sapiens) [compound 478] | “+++” (≥50 = +++)
479 (SLFGNSGILENV; listed as Homo sapiens) [compound 479] | “+++” (≥50 = +++)
480 (ALLEDSCHYL; listed as Homo sapiens) [compound 480] | “+++” (≥50 = +++)
481 (GLIEDYEALL; listed as Homo sapiens) [compound 481] | “+++” (≥50 = +++)
484 (SLIEKVTQL; listed as Homo sapiens) [compound 484] | “+++” (≥50 = +++)
485 (NVPDSFNEV; listed as Homo sapiens) [compound 485] | “+++” (≥50 = +++)
486 (AVMESIQGV; listed as Homo sapiens) [compound 486] | “+++” (≥50 = +++)
487 (LLINSVFHV; listed as Homo sapiens) [compound 487] | “+++” (≥50 = +++)
488 (FLAEDPKVTL; listed as Homo sapiens) [compound 488] | “+++” (≥50 = +++)
